B1: recombinant His-Cetn2 (natural protein)
chain: MASNFKKANMASSSQRKRMSPKPELTEEQKQEIREAFDLFDADGTGTIDVKELKVAMRALGFEPKKEEIKKMISEIDKEGTGKMNFGDFLTVMTQKMSEKDTKEEILKAFKLFDDDETGKISFKNLKRVAKELGENLTDEELQEMIDEADRDGDGEVSEQEFLRIMKKTSLY
B2: recombinant His-Cetn3 (natural protein)
chain: MSLALRSELVVDKTKRKKRRELSEEQKQEIKDAFELFDTDKDEAIDYHELKVAMRALGFDVKKADVLKILKDYDREATGKITFEDFNEVVTDWILERDPHEEILKAFKLFDDDDSGKISLRNLRRVARELGENMSDEELRAMIEEFDKDGDGEINQEEFIAIMTGDI

Target: T1, full-length glutathione S-transferase (GST)-Mps1 (UniProt P33981 1-857)
T1 sequence: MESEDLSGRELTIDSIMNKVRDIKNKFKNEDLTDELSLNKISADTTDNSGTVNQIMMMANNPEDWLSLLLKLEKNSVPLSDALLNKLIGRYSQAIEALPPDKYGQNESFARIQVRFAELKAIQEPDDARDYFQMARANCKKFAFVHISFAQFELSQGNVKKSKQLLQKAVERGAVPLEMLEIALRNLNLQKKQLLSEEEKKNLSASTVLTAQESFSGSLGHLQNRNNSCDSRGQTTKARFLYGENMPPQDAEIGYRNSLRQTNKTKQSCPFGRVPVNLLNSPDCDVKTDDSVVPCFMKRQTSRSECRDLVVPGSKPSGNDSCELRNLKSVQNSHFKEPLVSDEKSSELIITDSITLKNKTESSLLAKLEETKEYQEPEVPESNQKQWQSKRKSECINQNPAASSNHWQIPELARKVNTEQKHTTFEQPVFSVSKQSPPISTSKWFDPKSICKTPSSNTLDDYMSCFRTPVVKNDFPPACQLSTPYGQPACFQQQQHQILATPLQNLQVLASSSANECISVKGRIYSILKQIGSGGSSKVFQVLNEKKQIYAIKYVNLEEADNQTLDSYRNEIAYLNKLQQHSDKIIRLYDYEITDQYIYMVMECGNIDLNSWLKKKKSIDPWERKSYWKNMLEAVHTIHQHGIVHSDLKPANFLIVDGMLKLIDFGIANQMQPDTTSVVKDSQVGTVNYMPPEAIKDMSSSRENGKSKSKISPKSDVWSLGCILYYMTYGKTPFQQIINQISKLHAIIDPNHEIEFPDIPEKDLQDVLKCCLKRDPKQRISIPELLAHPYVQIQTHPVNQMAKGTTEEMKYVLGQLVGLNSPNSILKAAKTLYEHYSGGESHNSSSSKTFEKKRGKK
Assay: pull-down

Binder | fold binding to GST-Mps1 on coincubation with Cetn3 against Cetn2 alone | fold binding to GST-Mps1 with 5 mM MgCl2 against without
B1 | 3.39 ± 1.96 fold | 
B2 |  | 2.59 ± 0.91 fold

— article PMC4626060 (Molecular Biology of the Cell, 2015)
